Assay: yeast display, Sf9 membrane polyspecificity reagent, FACS + sequencing; frameworks hold sequencing errors
How it was run: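 A nanobody's polyreactivity label depends on the gate it was sorted from. Yeast display cells were stained with 10% biotinylated, detergent-solubilized Sf9 membrane reagent for 1 hour at 4 °C, enriched on streptavidin microbeads and sorted by FACS. The low and high (top ~1%) gates were set on anti-HA fluorescence for expression and streptavidin fluorescence for reagent binding.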

| Sequence | polyreactivity (PSR sort gate) |
| --- | --- |
| QVQLVESGGGLVQEGGSLRLSCAASGSIFRYYAMGWYRQAPGKERELVAVITRGGSTYYADSVKGRFTISRDNAKNTVYLQMNSLKPEDTAVYYCAAEDYVIGDSGYDYWGQGTQVTVSS | low polyreactivity |
| QVQLVESGGGLVQEGGSLRLSCAASGSILGRYAMGWYRQAPGKERELVAAITSSGGRTYYADSVKGRFTISRDNAKNTVYLQMNSLKREDTAVYYCNAVSWWYGYDYWGQGTQVSVSS | high polyreactivity |
| QVQLVESGGGLVQEGGSLRLSCAASGSILIVYAMGWYRQATGKERELVAAITRGGRTNYADSVKGRFTISRDNAKNTVYLQMNSLKPEDTAVYYCAARVLPANVKPYNYWGQGTQVTVSS | high polyreactivity |
| QVQLVESGGGLVQEGGSLRLSCAASGSNFKRNTMGWYRQAPGKERELVAAISASGGRTYYADSVKGRFTISRDNAKNTVYLPMNSLKPEDTAVYYCNARFRIGRSELDYWGQGTQVTVSS | low polyreactivity |
| QVQLVESGGGLVQEGGSLRLSCAASGSTFGGYAMGWYRQAPGKERELVAAISGSGVRTYYADSVKGRFTISRDNAKYSVYLQMNSLKPEDTAVYYCAKRVRYPGDRYYYWGQGSQVTVSS | high polyreactivity |
| QVQLVESGGGLVQEGGSLRLSCAASGSTFIDYAMGWYRQAPGKERELVAAITNGGNTKYADSVKGRFTISRDNAKNTVYLQMHSLKPEETAVYYGAREPSIFTPSYDYWGQGTQVTVSS | low polyreactivity |
| QVQLVESGGGLVQEGGSLRLSCAASGSTFSYNAMGWYRQAPGKERELVAAITSGSSTNYADSVKGRFTISRDNAKNTVYLQMNSLKPEDTAVYYCAADGYQDKYYWLETWVGYWGQGTQVTVSS | low polyreactivity |
| QVQLVESGGGLVQEGGSLRLSCAASGSTFVINAMGWYRQAPGKERELVADIDYRGGSTNYSDSVKGRFTISRDNAKNTVYLQMNSLKPEVTAVYYCNKRYVIRRRGYDYWGQGTQVTVSS | low polyreactivity |
| QVQLVESGGGLVQEGGSLRLSCAAYGSTSYRYAMGWYRQAPGKERELVAASSSSGGSTYYADSVKGRFTISRDNEKNTVYLQMNSLKPEDSAVYYCAARFYSGPGGYTMYYWGQGTQVSVSS | high polyreactivity |
| QVQLVESGGGLVQEGGSLRLSCASSGSTFPRYVMGWYRKQTGTESELVAAISSSSGRTFYADSVKGRFTISRDNAKNTVYLQMNSLKPEDTAVYYCAARTSFNVHYWGQGTQVTVSS | high polyreactivity |
| QVQLVESGGGLVQEGGSLRLSCDASGLILLPYARGWYRQAPGKERELVAAISCSGGSTYYADSVKGRFTISRDNAKNTVYLQMNSLKPEVTAVYYCPARPNRQGFYYWGQGTQVTVSS | high polyreactivity |
| QVQLVESGGGLVQEGGSLRLTCAASGRTFTVNAMGWYRQAPGKERELVARISYGGARTYYADSVKGRFTISRDNAKNTVYLQMNSLKPEDTAVYYCAAPGPRKYEYDYWGQGTQVTVSS | high polyreactivity |
| QVQLVESGGGLVQEGGSLRVSCAASGRTFRWYTMGWYRQAPGKEREFVAAITWSGSSTNYADSVKGRFTISRDNAKNTVYLQMNSLKPEDTAVYYCAGEKRRRRDDYWGQGTHVTVSS | high polyreactivity |
| QVQLVESGGGLVQERGSLRLSCAASGRIFGKYAMAWYRLAPGKERELVATISYGGGNTYYADSVKGRFTISRDNAKNTVYLQMNSMKPEDTAVYYCARVPYAYLRYKPFQQYSYDYWGQGTKVTVSS | high polyreactivity |
| QVQLVESGGGLVQEVGSLRLSCAASGSTIYWYAMGWSRQAPGKEMEIVAAISLGSGSTYYADSVKGRFTISRDNAKNTVYLQMNSLKPEDTAVYYCATRGSAWGRSYYYWGQGTQVTVSS | high polyreactivity |
| QVQLVESGGGLVQGGGSLRLRCAASGSILLYYTMGWYRPAPGKERELVAAISWSGVSTYYADSVKGRFTISRDNPMNTVYLQMISLKPVDNEVYYCGTRSVQGSYFAGYCYWGQGPQVTVSS | low polyreactivity |
